From PMC3843118, “ABC transporter functions as a pacemaker for sequestration of plant glucosides in leaf beetles” (eLife, 2013)

Substrate: OCc1ccccc1O[C@@H]1O[C@H](CO)[C@@H](O)[C@H](O)[C@H]1O
Experiment: efflux of injected substrate from oocytes, HPLC-MS
Assay type: cell-based, Chrysomela populi
Conditions: Xenopus oocytes expressing CpMRP vs water-injected control, modified Barth's medium pH 7.4, room temperature, oocyte volume assumed 1 µl

B1: CpMRP (Chrysomela populi) (protein)
chain: MDNGYQLKYDNPRDKANFISKLFFGWMIGLVRKATRTGLEVGDLYKTREADKSKKLADLLEKNWTKELKRAKLKGTKPSLSRALLKTFTMEYMGWGLLFFIQFVVLRSILPLILSYLISLFQESDMDDMVDRTNAMYICSGILITITAISIFFLHHTNKGLTVVGMKARIAVSSLIYRKITRLNQTSLGETAAGQVVNILSNDVNRFDLVVLSLHCLWTLPIQVALLFYLLWRQVQISCLAGILSMMIICIPGQGYVGKLTGVLRFRVAKKTDTRVKLMNEVISGIQVIKMYAWEKSFEKLIKLMRADEIKDLTSTSYLRGLLLSCVVFIERLTMFLTVTCYVLLGNVITADKVFSMAQFFNILQYGIAILYPMAVSYGAETLISIKRLQDFLLLEERKTPSIETAEDNGIQLSDVSASWTADTRTLRDITLNLPPGTLCAVVGPVGAGKSSLLQLLLGELPLSSGTMSLAGTISYSSQEPWLFQSSVRKNVLFGEPYQSSWYKQVVKVCALEKDFDQFPQRDQTIVGERGVSLSGGQRARINLARAIYRKTDVYLMDDPLSAVDTHVGRHLFDECIYRHLRGKTRILATHQLQYLKNADVIVVMNEGRIEAQGSFEELSDSELDFTKLLVSADETKGESKKLSLVEEPKIDYIKRLSVRSIMSTQSEFIEMMEYGDTEELGVDGNAHPFKDYCKAPRNVCLLVVVIISLILAQAVCSGADYWSSFWTRQEEIRHSTRARPVSDSSEVIQLVPLGNQTISLDGNKYTNENRDFSFDTFFDQVFLDNRIYKLLKTNYSMGVYGFLIIAAIVFTIGRSVLFCKLTMQASTNLHSDMFHTLLKAPMRFFDTNPSGRVLNRFSKDMGAVDEILPRTLLESIQIMLVMCGILVNIAVANPYMLVAMVVMGVCFYFLSKWYVTTASNVKHLEGFTKSPVFSHVNSTLNGITTIRAFRAEEVLCEEFDDQQDVHTSSWYLTLSCIASFGLWMDIVCLLFLACVTFSFVLMHSTSSVNGSLVGLAISQCLILTGMLQHGMRQTSEVINQLTSVERIRQYTKIDTEGPFETPIEKKPLKGWPNRGRLEFRNLVLRYVAEDDPVLRNLTFTVLPGEKVGIVGRTGAGKSSLISALFRLAPTSGSILIDGVDSKVLGLTDLRMKISIIPQEPVLFSATMRYNLDPFDEFDDRSLWDALEQVELKDAVESLDIMVTEGGNNFSLGQRQLICLARAILRNNNILVLDEATANVDQRTDSFIQKTIRRNFEDCTVLTIAHRLNTIMDSDKVLVMHFGEMVEYDHPHILLQLPEGHFHKMVLETGPAIYAQLKDVAEKAYHKNSRL
notes: cRNA expressed in Xenopus laevis oocytes
Km: 5.8 mM
